This test has as its target MCR2(OVA). As to the kind of experiment: cell-based or functional assay.

As to OT-II TCR, the NFAT-activation triggered by a T-cell population holding 1% peptide-specific CD4+ T-cells (% of the maximal NFAT-activation) was 50.

These data come from patent publication US20190345485A1.
